Key:
[1] = target: T1, natural Bet v 1 (Indoor, Cat #NA-BV1-1) (Betula verrucosa (European white birch, …, UniProt P15494 2-160)); assay: SPR Biacore, mAb captured on anti-hFc, 37C;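 note: purified anti-Bet v 1 monoclonal antibodies, HBS-ET running buffer pH 7.4, rate constants from 1:1 model fit with mass transport limitation, KD and t½ calculated from kinetic constants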
T1 construct: Bought natural protein purified from birch pollen; also called nBet v 1
T1 sequence: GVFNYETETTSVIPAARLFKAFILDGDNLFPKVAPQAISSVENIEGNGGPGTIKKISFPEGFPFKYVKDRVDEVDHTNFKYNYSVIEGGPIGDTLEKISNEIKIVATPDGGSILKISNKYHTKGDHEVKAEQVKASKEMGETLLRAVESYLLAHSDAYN

[2] = target: T2, Celery (Api g 1, MyBiosource, Cat #MBS1171376) (Celery, UniProt P49372 1-154, limits assumed); assay: SPR Biacore, 25C;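 note: binding of related allergens to purified monoclonal anti-Bet v 1 antibodies by surface plasmon resonance in HEPES-buffered saline pH 7.4, kinetics fitted to a 1:1 model with mass transport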
T2 construct: Bought reagent
T2 sequence (looked up): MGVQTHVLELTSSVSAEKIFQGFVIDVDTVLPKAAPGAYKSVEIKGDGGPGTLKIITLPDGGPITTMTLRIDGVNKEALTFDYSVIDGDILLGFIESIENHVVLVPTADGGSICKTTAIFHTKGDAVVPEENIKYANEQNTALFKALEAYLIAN

[3] = target: T3, Alder (Aln g 1, MyBiosource, Cat #MBS1041484) (Alder, UniProt P38948 2-160, limits assumed); assay: SPR Biacore, 25C;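 note: binding of related allergens to purified monoclonal anti-Bet v 1 antibodies by surface plasmon resonance in HEPES-buffered saline pH 7.4, kinetics fitted to a 1:1 model with mass transport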
T3 construct: Bought reagent
T3 sequence (looked up): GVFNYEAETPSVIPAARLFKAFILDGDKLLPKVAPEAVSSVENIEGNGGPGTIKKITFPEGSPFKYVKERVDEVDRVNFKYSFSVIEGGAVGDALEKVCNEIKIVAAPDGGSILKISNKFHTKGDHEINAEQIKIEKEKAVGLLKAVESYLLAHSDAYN

[4] = target: T4, European Hornbeam (Car b 1 isoform 2, MyBiosource, Cat #MBS1043940) (European Hornbeam, UniProt P38950 2-160, limits assumed); assay: SPR Biacore, 25C;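 note: binding of related allergens to purified monoclonal anti-Bet v 1 antibodies by surface plasmon resonance in HEPES-buffered saline pH 7.4, kinetics fitted to a 1:1 model with mass transport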
T4 construct: Bought reagent
T4 sequence (looked up): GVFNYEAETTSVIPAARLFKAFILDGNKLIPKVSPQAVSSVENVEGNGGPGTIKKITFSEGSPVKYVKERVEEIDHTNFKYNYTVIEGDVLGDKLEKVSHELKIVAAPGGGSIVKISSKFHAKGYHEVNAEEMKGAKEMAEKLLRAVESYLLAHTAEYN

[5] = target: T5, European Hornbeam (Car b 1 isoform 1A & 1B, MyBiosource, Cat #MBS1200018) (European Hornbeam, UniProt P38949 2-160); assay: SPR Biacore, 25C;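 note: binding of related allergens to purified monoclonal anti-Bet v 1 antibodies by surface plasmon resonance in HEPES-buffered saline pH 7.4, kinetics fitted to a 1:1 model with mass transport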
T5 construct: Bought reagent
T5 sequence (looked up): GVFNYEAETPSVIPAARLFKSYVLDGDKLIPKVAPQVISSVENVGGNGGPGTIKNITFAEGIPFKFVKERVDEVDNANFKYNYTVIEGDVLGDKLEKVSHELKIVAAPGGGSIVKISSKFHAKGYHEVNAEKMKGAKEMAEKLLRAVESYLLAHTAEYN

[6] = target: T6, Apple (Mal d 1, MyBiosource, Cat #MBS1224919) (Apple, UniProt P43211 2-159, limits assumed); assay: SPR Biacore, 25C
T6 construct: Bought reagent
T6 sequence (looked up): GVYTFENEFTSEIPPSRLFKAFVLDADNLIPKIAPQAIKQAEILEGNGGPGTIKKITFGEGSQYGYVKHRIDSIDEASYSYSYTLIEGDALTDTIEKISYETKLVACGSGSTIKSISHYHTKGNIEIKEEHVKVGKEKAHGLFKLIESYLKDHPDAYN

mutant Bet v 1-MMH = target: T7, mutant Bet v 1-MMH (Betula verrucosa (European white birch, …)); assay: SPR Biacore, 25C and 37C
T7 construct: also called CHO produced recombinant Bet v 1 containing a S85A mutation with a C-terminal myc-myc hexahistidine tag
T7 chain: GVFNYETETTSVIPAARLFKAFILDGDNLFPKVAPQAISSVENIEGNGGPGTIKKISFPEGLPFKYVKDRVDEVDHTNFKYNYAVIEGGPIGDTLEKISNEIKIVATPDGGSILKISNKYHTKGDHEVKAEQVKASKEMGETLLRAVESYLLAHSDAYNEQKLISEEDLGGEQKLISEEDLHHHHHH

[7] = target: T1, natural Bet v 1 (Indoor, Cat #NA-BV1-1); assay: SPR Biacore, mAb captured on anti-hFc, 25C;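 note: rate constants from sensorgrams fitted to a 1:1 model with mass transport limitation, KD and t½ derived from kinetic constants, run in HBS-ET buffer at pH 7.4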
natural Bet v 1 [8] = target: T8, natural Bet v 1 (Betula verrucosa (Betula pendula), UniProt P15494 2-160); assay: blocking ELISA, biotin nBet v 1 to captured IgE, donor 23939-MH
T8 construct: bought natural protein (Indoor Biotechnologies #NA-BV1-1); also called nBet v 1; Biotinylated Bet v 1
T8 chain: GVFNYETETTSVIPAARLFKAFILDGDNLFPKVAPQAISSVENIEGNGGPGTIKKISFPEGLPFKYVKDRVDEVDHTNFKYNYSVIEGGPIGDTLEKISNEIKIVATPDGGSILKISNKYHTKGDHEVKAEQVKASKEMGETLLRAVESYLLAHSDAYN

natural Bet v 1 [9] = target: T8, natural Bet v 1; assay: blocking ELISA, biotin nBet v 1 to captured IgE, donor 25340-RR
natural Bet v 1 [10] = target: T8, natural Bet v 1; assay: blocking ELISA, biotin nBet v 1 to captured IgE, donor 23035-BL
natural Bet v 1 [11] = target: T8, natural Bet v 1; assay: blocking ELISA, biotin nBet v 1 to captured IgE, donor 22627-MN
natural Bet v 1 [12] = target: T8, natural Bet v 1; assay: blocking ELISA, biotin nBet v 1 to captured IgE, donor 25609-MS
natural Bet v 1 [13] = target: T8, natural Bet v 1; assay: blocking ELISA, biotin nBet v 1 to captured IgE, donor 25414-CW
natural Bet v 1 [14] = target: T8, natural Bet v 1; assay: dose-response blocking ELISA, biotin nBet v 1 to captured IgE, donor 25609-MS
natural Bet v 1 [15] = target: T8, natural Bet v 1; assay: dose-response blocking ELISA, biotin nBet v 1 to captured IgE, donor 23939-MH
natural Bet v 1 [16] = target: T8, natural Bet v 1; assay: blocking ELISA, biotin nBet v 1 to captured IgE, donor 26532-CC
natural Bet v 1 [17] = target: T8, natural Bet v 1; assay: blocking ELISA, biotin nBet v 1 to captured IgE, donor 25299-RJ
natural Bet v 1 [18] = target: T8, natural Bet v 1; assay: blocking ELISA, biotin nBet v 1 to captured IgE, donor 23658-MD
natural Bet v 1 [19] = target: T8, natural Bet v 1; assay: dose-response blocking ELISA, biotin nBet v 1 to captured IgE, donor 25340-RR
natural Bet v 1 [20] = target: T8, natural Bet v 1; assay: blocking ELISA, biotin nBet v 1 to captured IgE, donor 29718-MW

B1: H4H16967P (antibody, human IgG4, V domains shown)
VH: QVQLVESGGGVVQPGRSLRLSCAASGFTFSSYGMHWFRQAPGKGLEWVGVIWSDGSDKKYADSVKGRFTISRDNSKNTLYLLMNSLRDDDTAVYHCAREGGFLYSSSSHFDYWGQGTLVTVSS
VL: AIQMTQSPSSLSASVGDRVTITCRTSQGIRNDLGWYQQKPGKAPKLLIFAASSLQSGVPSRFSGSGSGTDFTLTISSLQPEDFAIYYCLQDYKYPFTFGGGTKVEIK
With B1 the “100 nM natural Bet v 1 Bound (RU)” value [1] was 45 RU, the Kd [1] was 14.3 nM and the koff [1] was 0.000719 s⁻¹. The kon [1] was 50400 M⁻¹ s⁻¹, the t½ [1] was 16 min and the binding result [2] was “no binding (tested: 100 nM)”. B1: no binding (tested: 100 nM) [3]; no binding (tested: 100 nM) [4]; no binding (tested: 100 nM) [5]. The binding result [6] was “no binding (tested: 100 nM)”, the binding result (mutant Bet v 1-MMH) was “no binding (tested: 100 nM)” and the “100 nM natural Bet v 1 Bound (RU)” value [7] was 27 RU. It also gave a Kd [7] of 3.98 nM, a koff [7] of 0.000149 s⁻¹ and a kon [7] of 37600 M⁻¹ s⁻¹. The t½ [7] was 77 min.

B2: H4H16987P (antibody, human IgG4 S228P, kappa, V domains shown)
VH: EVQLVESGGGLVQPGGSLRLSCAASGFTVSSNSMSWVRQAPGEGLEWVSVIFSGGITYYSDSVKGRFTISRHNSKNTLYLQMNSLRTEDTAVYYCARHSNWNFDAFDIWGQGTMVTVSS
VL: DIQMTQSPSSLSASVGDRVTITCRASQSFDTYLNWYQQKPGKAPNLLIYATSSLQSGVPSRFSGSGSGTDFTLTISSLQPEDFGTYYCQQSYSIPYTFGQGTKLEIKR
notes: fully human, human IgG4 Fc (H4H prefix); also called MAB4
For B2, the “Percent Blocking (at 1 µg/mL each antibody)” value (“Percent Blocking” below) (natural Bet v 1 [8]) was 16%, the “Percent Blocking” value (natural Bet v 1 [9]) was 15% and the “Percent Blocking” value (natural Bet v 1 [10]) was -46%. The “Percent Blocking” value (natural Bet v 1 [11]) was 12%, the “Percent Blocking” value (natural Bet v 1 [12]) was 16% and the “Percent Blocking” value (natural Bet v 1 [13]) was -4%. The “Percent Blocking” value (natural Bet v 1 [14]) was 21.6%, the “Percent Blocking” value (natural Bet v 1 [15]) was 19.6% and the “Percent Blocking” value (natural Bet v 1 [16]) was 4%. For the same binder, the “Percent Blocking” value (natural Bet v 1 [17]) was 9%, the “Percent Blocking” value (natural Bet v 1 [18]) was 27% and the “Percent Blocking” value (natural Bet v 1 [19]) was 11.1%. For the same binder, the “Percent Blocking” value (natural Bet v 1 [20]) was 13%.
